Source: the supplement of paper PMC10724198
± gives the standard deviation of the averaged measurements.

Test system: Saccharomyces cerevisiae
Experiment: protein stability index of tFT-peptide fusion (C-terminal peptide) (PSI (0-1 scale)); higher = more stable (slower turnover)
Conditions: genetic background: wild type; temperature: 30 C
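Further: PSI is a weighted mean of sequencing reads over stability bins, variants kept only with over 10 reads, mCherry proximal and sfGFP distal, peptide attached via GGGS linker.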

Sequence	protein stability index
RTTSFVLSYRRE	0.66 ± 0.019
RTWDNTRDLDEL	0.656 ± 0.019
RVCCGVKDSEES	0.619 ± 0.0062
RVCFSLGAEFSF	0.665 ± 0.055
RVCVERFDSLTL	0.733 ± 0.08
RVDAWLEGKTVR	0.734 ± 0.02
RVGAVCWSIGLL	0.68 ± 0.03
RVGWCGGGRGGR	0.658 ± 0.048
RVGWCPCTGDRR	0.663 ± 0.019
RVHRSVVGYRRC	0.611 ± 0.025
RVKMEFGRYRIF	0.52266 ± 0.0005
RVKRTGLGVWGF	0.649 ± 0.033
RVLCLCATSKSR	0.672 ± 0.016
RVPGGLPCRPSL	0.775 ± 0.041
RVQLPSRITQKA	0.596 ± 0.023
RVQMTTHGCLIS	0.766 ± 0.15
RVRLSLDSPLGL	0.684 ± 0.044
RVVHKIFGRRVT	0.6873 ± 0.0049
RVWNRHWMGASS	0.776 ± 0.084
RVWSMYCSEANG	0.666 ± 0.017
RVWYNVGEGPVR	0.699 ± 0.0085
RWAQVAEGGEGR	0.732 ± 0.099
RWARGGSRGGGG	0.703 ± 0.044
RWCEWYDMNTII	0.636 ± 0.02
RWGVFRSLPSPS	0.622 ± 0.17
RWGVGGSVSFWW	0.7 ± 0.047

Sequence	protein stability index
RWGVRGAIHSDL	0.6841 ± 0.0065
RWSVIHARLLSP	0.846 ± 0.19
RWSYCLVFSLGL	0.532 ± 0.015
RWTLMMAIIRQR	0.559 ± 0.024
RWWGDEAHRDGA	0.81 ± 0.049
RYANGVLHIGSN	0.659 ± 0.042
RYCIRDNKSNRN	0.705 ± 0.051
RYENRGRMKRER	0.676 ± 0.042
RYKCSQWHNGLT	0.767 ± 0.048
RYKSVPLHCISN	0.671 ± 0.022
RYNPPRGIHNDL	0.651 ± 0.043
RYPSRGQFGPSP	0.691 ± 0.019
RYRGPIPHEHTC	0.652 ± 0.085
RYSLMRAVRDRL	0.775 ± 0.17
SAASLWSGFRYG	0.68 ± 0.0085
SACAPSPPSPSP	0.749 ± 0.015
SACRSVPGYVAG	0.672 ± 0.046
SAFLSFLRLVFL	0.632 ± 0.011
SAFLSFPFLSPF	0.705 ± 0.011
SAGIRPFIQVHI	0.653 ± 0.019
SAGLLFFSFPPL	0.7873 ± 0.0067
SAGYFYSWNSSD	0.708 ± 0.028
SAIALGCEGVYP	0.6853 ± 0.0012
SAMIKRIIGMHY	0.634 ± 0.048
SANSGVRHMHFW	0.729 ± 0.058
SAPAFPPRPPPT	0.675 ± 0.025

Sequence	protein stability index
SAPEPTISKLLP	0.603 ± 0.027
SAPPLPLSPPPS	0.739 ± 0.076
SAPRPPPLPPSP	0.68 ± 0.068
SARECSVRTPHN	0.711 ± 0.061
SASPLRPPFLLL	0.635 ± 0.09
SATDARPPMKSP	0.735 ± 0.069
SCEIDKMYLPLR	0.701 ± 0.031
SCFTSLLGRRDG	0.784 ± 0.12
SCGCCGVLFQGV	0.846 ± 0.2
SCGKGVGRWRLG	0.6721 ± 0.0029
SCHVRPPVPRPS	0.663 ± 0.018
SCLALLSLLIDF	0.57 ± 0.021
SCNLYVGQVKSG	0.649 ± 0.036
SCPQSSLASVYA	0.529 ± 0.029
SCPRASSSSLTA	0.671 ± 0.07
SCRAIIDCMYNT	0.611 ± 0.067
SCSDPPSPLPLS	0.686 ± 0.0088
SCSGVHYLGSSL	0.679 ± 0.023
SCVWVLPLGFLR	0.575 ± 0.058
SDCWGAIIGCSG	0.677 ± 0.027
SDPGRLVLKIRR	0.715 ± 0.014
SDSIVTGCLKYP	0.696 ± 0.014
SEARCVGSVWGG	0.757 ± 0.098
SEKGPRRSRVWD	0.745 ± 0.046
SEKILCTGECAA	0.619 ± 0.07
SEKIRDQQPTPA	0.671 ± 0.044

Sequence	protein stability index
SEKRIGAGKDSE	0.688 ± 0.011
SENNLKHEKVIE	0.735 ± 0.22
SERERYKKNEKV	0.643 ± 0.0017
SEVISMSDDLGR	0.633 ± 0.087
SFASLSFDTASF	0.675 ± 0.0086
SFCCISSFPCWR	0.751 ± 0.016
SFDFRKGDPTSD	0.667 ± 0.02
SFGGGLIGAGVT	0.698 ± 0.082
SFHCFFTTSWYS	0.701 ± 0.11
SFLSLLLLSSSR	0.7 ± 0.012
SFMYCDLLLFGS	0.59 ± 0.068
SFPLLFPVSSRL	0.8641 ± 0.0077
SFPLSPPSLPSL	0.781 ± 0.1
SFPPLCLSFPVF	0.65 ± 0.02
SFPYPCFPPPPF	0.78 ± 0.056
SFSLPPSSSPPT	0.725 ± 0.1
SFSPNRAVSFST	0.727 ± 0.082
SFSPSIHLLSTL	0.677 ± 0.045
SFTFSFWRFSPR	0.676 ± 0.019
SFTYVFFSLSRR	0.663 ± 0.019
SFVFRLGEVGSS	0.603 ± 0.12
SFVFVCDGGSRG	0.669 ± 0.017
SFVVAVALGRLR	0.5734 ± 0.003
SFVVFGSFFCFC	0.572 ± 0.018
SGAATSRRGLCS	0.672 ± 0.013
SGAGAMPPCSLP	0.697 ± 0.029

Sequence	protein stability index
SGCGGKFGCALR	0.74 ± 0.045
SGCRLGCASVVQ	0.611 ± 0.044
SGGGAGKRVCEG	0.704 ± 0.015
SGGGELGATSGG	0.691 ± 0.031
SGGGGGGQVAVG	0.739 ± 0.1
SGGISGCPPPVF	0.689 ± 0.036
SGGRTSRREGGR	0.643 ± 0.075
SGGSKAGGVVRI	0.63 ± 0.039
SGIIVSPAVDMY	0.667 ± 0.0067
SGIKGENKIKEK	0.681 ± 0.0097
SGILRSLAYPPD	0.6142 ± 0.0035
SGKFGACVDRGI	0.7236 ± 0.00012
SGLRPGAGDCSA	0.611 ± 0.07
SGPSSIGSSCMS	0.663 ± 0.023
SGQVFADGSYAD	0.699 ± 0.015
SGRAALARVSPT	0.694 ± 0.028
SGRCGGESNDAE	0.626 ± 0.012
SGRPALSRARRG	0.668 ± 0.015
SGRYNIKPEERE	0.634 ± 0.022
SGSLFVRIGGMG	0.754 ± 0.094
SGVDVPCSCHYL	0.732 ± 0.013
SGVTISYQEGLR	0.677 ± 0.0091
SGVVIDDSLKEE	0.683 ± 0.0092
SGVVLVRCEGRR	0.754 ± 0.15
SGWVVECPRECW	0.719 ± 0.024
SHALSFSFSLLP	0.6367 ± 0.0052

Sequence	protein stability index
SHGEDTACNWGL	0.714 ± 0.018
SHPHLSSPPSRP	0.678 ± 0.055
SHPLFLPALSPP	0.721 ± 0.061
SHQTTKQKKKNL	0.624 ± 0.013
SHSLPHLSGPPR	0.698 ± 0.056
SHTLIRRGTHFP	0.683 ± 0.0094
SHTVVFRVCTGS	0.631 ± 0.087
SHVPLPRAHSPP	0.6702 ± 0.0034
SHVVRHVSTVEK	0.7 ± 0.023
SICRERRLSFYL	0.728 ± 0.052
SIECSLCYSLFD	0.663 ± 0.032
SIERNEGRKKLG	0.708 ± 0.064
SIFPLSLLLPLP	0.758 ± 0.05
SIHITGTLSRTA	0.751 ± 0.065
SIIRWSKRTEES	0.695 ± 0.049
SIKKKQKIKLTK	0.689 ± 0.02
SIRPVRLSWVRL	0.632 ± 0.0066
SIRQDSLMVWGG	0.666 ± 0.097
SISANPGAPHFP	0.666 ± 0.022
SISGTSKDSASC	0.6677 ± 0.0028
SISRPSEHHLTQ	0.673 ± 0.023
SIVLRNRSGDIL	0.63 ± 0.061
SIVPIIPDSVPP	0.676 ± 0.048
SKEERRKGSKKI	0.686 ± 0.054
SKKRKKNNAKTK	0.713 ± 0.01
SKLRDFHVLVTH	0.611 ± 0.011

Sequence	protein stability index
SLAFGPTAFLPT	0.6818 ± 0.0038
SLAGGSSAPSAS	0.673 ± 0.013
SLALSAGFSIYL	0.6693 ± 0.0062
SLASPPPLHCTL	0.659 ± 0.034
SLAVATAVLLYP	0.666 ± 0.035
SLAYPPPSPPPA	0.68 ± 0.054
SLCFSVFFPFFF	0.5443 ± 0.0027
SLCHLFYGSVEG	0.668 ± 0.055
SLEYIFSCWSLY	0.711 ± 0.1
SLFASTFFVWPS	0.725 ± 0.014
SLFPAETPPKYR	0.656 ± 0.025
SLFRYPLALPFP	0.711 ± 0.012
SLFSLLRSPSPF	0.806 ± 0.18
SLGRVSRLSFQH	0.784 ± 0.041
SLGSISSATLLA	0.6117 ± 0.0026
SLIACQGPIPCG	0.648 ± 0.038
SLIFVSLLGAYD	0.623 ± 0.056
SLLAGSSLPFSP	0.696 ± 0.0074
SLLAPPALTAPS	0.674 ± 0.05
SLLPPPPPPAPS	0.627 ± 0.011
SLLSRYFLLPLL	0.545 ± 0.061
SLPFSPPTRSSL	0.758 ± 0.052
SLPPPPLLPRPL	0.686 ± 0.061
SLPSPIPPPSLL	0.739 ± 0.29
SLPSSPPPSPPL	0.7172 ± 0.0043
SLRFLFPSSRFF	0.664 ± 0.015

Sequence	protein stability index
SLRLAHSPPDEV	0.749 ± 0.17
SLRLFIHTIFSR	0.695 ± 0.061
SLRLPPPRRLPV	0.658 ± 0.12
SLRMMKTTNAWT	0.661 ± 0.0077
SLRPPLHSPSPS	0.674 ± 0.016
SLRPSELFRPLN	0.724 ± 0.014
SLRSPPPPPGIL	0.756 ± 0.046
SLSIFLRDALGF	0.74 ± 0.035
SLSIHPCHFGPS	0.671 ± 0.03
SLSPGLPPVLLT	0.666 ± 0.0067
SLSPPLLPPSPP	0.643 ± 0.018
SLSPPPLSPSPP	0.627 ± 0.022
SLVCGFAVGGFW	0.659 ± 0.044
SLVPCFLSFLYP	0.5752 ± 0.0017
SLVSGPRPPSAF	0.737 ± 0.089
SLVVSPRQLLPR	0.704 ± 0.029
SLWWRWQATIRR	0.714 ± 0.13
SLYERYGRFNSS	0.656 ± 0.027
SLYPRALDFGPM	0.692 ± 0.033
SLYYPRLVSSSL	0.732 ± 0.11
